Results from US20120184713A1, “Compositions and Methods for Modulation of Bone Density and Biomineralization” (priority 2011, published 2012).
Changes are numbered by the printed parent chain. In names and notes the source's numbering stands.

B1: FAM20C: affinity purified V5-tagged mouse FAM20C, Golgi-localized protein kinase (protein)
chain: DFSSDPASNLTSHSLEKLPSAAEPVDHAPRGQEPRSPPPRDPAHRPLLRDPGPRPRVPPPGPSGDGSLLAKLFEHPLYQGAVPPLTEDDVLFNVNSDIRFNPKAAENPDWPHEGAEGAEFLPTGEAAVNLYPNWLKFHIGINRYELYSRHNPAIDALLRDLGSQKITSVAMKSGGTQLKLIMTFQNYGQALFKPMKQTREQETPPDFFYFSDYERHNAEIAAFHLDRILDFRRVPPVAGRMINMTKEIRDVTRDKKLWRTFFVSPANNICFYGECSYYCSTEHALCGRPDQIEGSLAAFLPDLSLAKRKTWRNPWRRSYHKRKKAEWEVDPDYCEEVKQTPPYDSGHRILDIMDMTVFDFLMGNMDRHHYETFEKFGNETFIIHLDNGRGFGKYSHDELSILAPLHQCCRIRRSTYLRLQLLAKEEHKLSLLMAESLQHDKVAPVLYQLHLEALDRRLRIVLQAVRDCVEKDGLSSVVEDDLATEHRASTER
modifications: left off: small tags and cut ends
B2: 1241N: recombinant mouse FAM20C:V5 carrying Raine syndrome patient mutation 1241N (protein, UniProt Q5MJS3 88-579, looked up, variant I241N)
Extracellular …: B1 chain with I154N
modifications: V5 tag
notes: recombinant mouse FAM20C:V5 carrying Raine syndrome patient mutation 1241N
B3: G261R: recombinant mouse FAM20C:V5 carrying Raine syndrome patient mutation G261R (protein, UniProt Q5MJS3 88-579, looked up, variant G261R)
Extracellular …: B1 chain with G174R
modifications: V5 tag
B4: D453G: FAM20C:V5 with a mutation in a conserved Asp residue (protein, UniProt Q5MJS3 88-579, looked up, variant D453G)
Extracellular …: B1 chain with D366G
modifications: V5 tag
notes: FAM20C:V5 with a mutation in a conserved Asp residue
B5: G374R: recombinant mouse FAM20C:V5 carrying Raine syndrome patient mutation G374R (protein, UniProt Q5MJS3 88-579, looked up, variant G374R)
Extracellular …: B1 chain with G287R
modifications: V5 tag
B6: DN473-474GG: FAM20C:V5 with a mutation in a motif predicted to bind metal ion cofactors (protein, UniProt Q5MJS3 88-579, looked up, variant D473G N474G)
Extracellular …: B1 chain with D386G, N387G
modifications: V5 tag
B7: G374E: recombinant mouse FAM20C:V5 carrying Raine syndrome patient mutation G374E (protein, UniProt Q5MJS3 88-579, looked up, variant G374E)
Extracellular …: B1 chain with G287E
modifications: V5 tag

Key:
FAM20C = target: T1, FAM20C (Mus musculus, UniProt Q5MJS3); experiment: FAM20C in vitro kinase assay with dephosphorylated alpha-Casein as substrate; assay type: biochemical; conditions: Casein as model substrate; 5 minute assays
T1 construct: His (from vector pcDNA3.1/V5-His B) (C); made in house; host or cells: HEK293T
T1 sequence (Q5MJS3 88-579): B1 chain
Method: For FAM20C:V5 purification, pcDNA-FAM20C:V5 was transfected to HEK293T cells, and FAM20C:V5 was purified from conditioned media using anti-V5 agarose beads (Sigma). Condition media were incubated with anti-V5 affinity gel (Sigma) overnight at 4° C. Agarose beads were collected by centrifugation, and washed 5 times with TBS. Proteins were eluted using V5 peptides in TBS (Sigma, final concentration: 100 μg/ml). For purification of OPN:FLAG, BSP:FLAG, DMP1:FLAG, DSPP:FLAG and MEPE:FLAG, condition media were incubated with anti-FLAG M2 affinity gel (Sigma) overnight at 4° C. Agarose beads were collected by centrifugation, and washed 5 times with TBS. Purified quantification was performed on gels stained by SYPRO Ruby Protein Gel Stain (Invitrogen), using BSA as a standard.
FAM20C kinase assays were performed in 10 μl reactions, with 500 μM ATP, including 3 μCi (0.05 μM) of [gamma-^32P]ATP (6000 Ci/mmol, PerkinElmer), 50 mM Tris (pH 7.0), 10 mM MnCl2, 0.1% BSA, purified FAM20C:V5 (5 ng, […]), and dephosphorylated alpha-Casein (0.1 μg, Sigma). […] Radioactivity within the gels was detected using a Molecular Dynamics Phosphor Imager. For quantitation of gamma-^32P incorporation, bands were cut out of the gels using the Phosphor Imager pictures as a reference, and then counted by liquid scintillation using a Beckman Coulter LC6500. […]

OPN-ASARM peptide = experiment: Kinase assays of FAM20C mutant proteins; assay type: biochemical, human; conditions: recombinant mouse FAM20C:V5 mutants; for the mutants OPN-ASARM peptide (1) as substrate, FIG. 8f
Method: Site-specific mutagenesis was performed by PCR essentially as described^26, by using primers […] and […] (SEQ ID NO: 25) (FAM20C^GG), […] (SEQ ID NO: 26) and […] (FAM20C^D453G) (SEQ ID NO: 27), […] (SEQ ID NO: 28) and […] (FAM20C^G374R) (SEQ ID NO: 29), […] and […] (FAM20C^G374E) (SEQ ID NO: 30), […] (SEQ ID NO: 31) and […] (FAM20C^E383R) (SEQ ID NO: 32), […] (SEQ ID NO: 33) and […] (FAM20C^R544W) (SEQ ID NO: 34), […] (SEQ ID NO: 35) and […] (FAM20C^1241N)(SEQ ID NO: 36), […] (SEQ ID NO: 37) and […] (FAM20C^G261R) (SEQ ID NO: 38), […] (SEQ ID NO: 39) and […] (FAM20C^D446N) (SEQ ID NO:40). All mutations were confirmed by DNA sequencing.
FAM20C kinase assay with peptides substrates were performed in 10 μl reactions, with 500 μM ATP, including 3 μCi (0.05 μM) of [gamma-^32P]ATP (6000 Ci/mmol, PerkinElmer), 50 mM Tris (pH 7.0), 10 mM MnCl2, 0.1% BSA, purified FAM20C:V5 and peptides. Casein Kinase I (500 units, NEB) was used as a control kinase. mutant versions (5 ng, […]), and peptides (2.5 μg, 1 nmol as a standard condition. 250 ng, […] in FAM20C mutants). Reactions were stopped by adding 1.5 μl 0.1N—HCl, and one half of the reaction volume was pipetted on to P81 phospho-cellulose filter paper^27. The filter papers were washed with 0.5% phosphoric acid and subjected to liquid scintillation counting.

| Molecule | V. (FAM20C) | turnover number (kcat) (FAM20C) | kinase activity of FAM20C mutant isoform (OPN-ASARM peptide) |
| --- | --- | --- | --- |
| B1 | 0.7 μM ATP/min/mg FAM20C | 52 per minute | – |
| B2 | – | – | no detectable kinase activity |
| B3 | – | – | diminished kinase activity |
| B4 | – | – | abolished catalytic activity |
| B5 | – | – | no detectable kinase activity |
| B6 | – | – | abolished catalytic activity |
| B7 | – | – | no detectable kinase activity |
